Among the data in patent publication US10766960 (dated 2020) are Kd values, retold here.

Numbering of substitutions follows the chain as printed.

B1: H240-Kn232/H240-Hl068/L73-k0 (antibody)
chain 1: QDQLVQSGAEVKKPGASVKVSCKASGFNIKDTYIQWVRQAPGQGLEWMGRIDPLRKQTKYREKFEGRVTITADTSTNTAYMELSSLRSEDTAVYYCVRSGREFDYWGQGTLVTVSSASTKGPSVFPLAPSSKSTSGGTAALGCLVKDYFPEPVTVSWNSGALTSGVHTFPAVLQSSGLYSLSSVVTVPSSSLGTQTYICNVNHKPSNTKVDKKVEPKSCDKTHTCPPCPAPELYWGPIVFLFPPKPKDTLMISRTPEVTCVVVDVSDEDPEVKFNWYVDGVEVHNAKTKPREEQYNATYRVVSVLTVLHQDWLNGKEYKCKVSNKDLPAPIEKTISKAKGQPREPQVCTLPPSRDELTKNQVSLWCLVKGFYPSDIAVEWESNGQPENNYKTTPPVLDSDGSFFLYSKLTVDKSRWQQGNVFSCSVMHEALHNHYTQKSLSLSP
chain 2: QDQLVQSGAEVKKPGASVKVSCKASGFNIKDTYIQWVRQAPGQGLEWMGRIDPLRKQTKYREKFEGRVTITADTSTNTAYMELSSLRSEDTAVYYCVRSGREFDYWGQGTLVTVSSASTKGPSVFPLAPSSKSTSGGTAALGCLVKDYFPEPVTVSWNSGALTSGVHTFPAVLQSSGLYSLSSVVTVPSSSLGTQTYICNVNHKPSNTKVDKKVEPKSCDKTHTCPPCPAPELLGGPSVFLFPPKPKDTLMISRTPEVTCVVVDVSHEEPEVKFNWYVDGVEVHNAKTKPREEQYNSTYRVVSVLTVLHQDWLNGKEYKCKVSNDALPKPIEETISKAKGQPREPQVYTLPPSRCELTKNQVSLSCAVKGFYPSDIAVEWESNGQPENNYKTTPPVLDSDGSFFLVSKLTVDKSRWQQGNVFSCSVMHEALHNHYTQKSLSLSP
chain 3: DIQMTQSPSSLSASVGDRVTITCRASQDIHKYIAWYQQKPGQAPRLLIQYTSTLQPGVPSRFSGSGSGTDYTFTISSLQPEDIATYYCLQYEQLRTFGGGTKVEIKRTVAAPSVFIFPPSDEQLKSGTASVVCLLNNFYPREAKVQWKVDNALQSGNSQESVTEQDSKDSTYSLSSTLTLSKADYEKHKVYACEVTHQGLSSPVTKSFNRGEC
B2: H240-Kn200/H240-Hl210/L73-k0 (antibody)
chain 1: B1 chain 1 with L233S, Y234Q, I238M, D269E, D326A
chain 2: B1 chain 2 with K329A
chain 3: B1 chain 3
B3: H240-Kn201/H240-Hl068/L73-k0 (antibody)
chain 1: B1 chain 1 with L233F, Y234Q, I238M, D269E, D326A
chain 2: B1 chain 2
chain 3: B1 chain 3
B4: H240-Kn208/H240-Hl214/L73-k0 (antibody)
chain 1: B1 chain 1 with L233D, Y234Q, I238M, D269E, D326A
chain 2: B1 chain 2 with K329F
chain 3: B1 chain 3
B5: H240-Kn227/H240-Hl210/L73-k0 (antibody)
chain 1: B1 chain 1 with L233E, Y234Q, D269E, D326A
chain 2: B1 chain 2 with K329A
chain 3: B1 chain 3
B6: H240-Kn200/H240-Hl068/L73-k0 (antibody)
chain 1: B1 chain 1 with L233S, Y234Q, I238M, D269E, D326A
chain 2: B1 chain 2
chain 3: B1 chain 3
B7: H240-Kn166/H240-Hl170/L73-k0 (antibody)
chain 1: B1 chain 1 with L233Y, I238M, L327A
chain 2: B1 chain 2 with L327A
chain 3: B1 chain 3
B8: H240-Kn178/H240-Hl068/L73-k0 (antibody)
chain 1: B1 chain 1 with L233Y, I238M, K333Y
chain 2: B1 chain 2
chain 3: B1 chain 3
B9: H240-Kn138/H240-Hl147/L73-k0 (antibody)
chain 1: B1 chain 1 with L233Y, I238M, L327W
chain 2: B1 chain 2 with L327W
chain 3: B1 chain 3
B10: H240-Kn120/H240-Hl174/L73-k0 (antibody)
chain 1: B1 chain 1 with L233Y, I238M
chain 2: B1 chain 2 with I331E
chain 3: B1 chain 3
B11: H240-Kn172/H240-Hl177/L73-k0 (antibody)
chain 1: B1 chain 1 with L233Y, I238M, I331M
chain 2: B1 chain 2 with I331Q
chain 3: B1 chain 3
B12: H240-Kn138/H240-Hl068/L73-k0 (antibody)
chain 1: B1 chain 1 with L233Y, I238M, L327W
chain 2: B1 chain 2
chain 3: B1 chain 3
B13: H240-Kn120/H240-Hl150/L73-k0 (antibody)
chain 1: B1 chain 1 with L233Y, I238M
chain 2: B1 chain 2 with I331T
chain 3: B1 chain 3
B14: H240-Kn173/H240-Hl068/L73-k0 (antibody)
chain 1: B1 chain 1 with L233Y, I238M, I331Q
chain 2: B1 chain 2
chain 3: B1 chain 3

T3 sequence (P08637 17-208): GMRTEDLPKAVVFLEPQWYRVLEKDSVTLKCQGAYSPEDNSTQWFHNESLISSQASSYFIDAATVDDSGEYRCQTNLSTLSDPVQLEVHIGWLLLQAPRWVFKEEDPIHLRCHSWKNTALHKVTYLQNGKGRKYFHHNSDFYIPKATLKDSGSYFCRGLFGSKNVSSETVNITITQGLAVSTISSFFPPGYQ

In one test the target is T1, FcgRIa (human, UniProt P12314).
T1 chain: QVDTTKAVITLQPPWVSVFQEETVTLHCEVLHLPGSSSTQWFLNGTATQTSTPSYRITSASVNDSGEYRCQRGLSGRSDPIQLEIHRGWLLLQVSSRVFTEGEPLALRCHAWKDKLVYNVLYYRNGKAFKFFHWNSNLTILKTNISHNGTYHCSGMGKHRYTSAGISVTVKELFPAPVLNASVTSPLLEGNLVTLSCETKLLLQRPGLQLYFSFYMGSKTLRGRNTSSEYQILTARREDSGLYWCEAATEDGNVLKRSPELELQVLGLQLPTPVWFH
Nature of the test: SPR. On the technique in general: Surface plasmon resonance follows binding to a sensor surface in real time, without labels.
As to B1, binding was put at a Kd of 0.23 nM.

As to B2, the affinity, expressed as Kd, was 0.18 nM.

With B3, binding was put at a Kd of 0.26 nM.

B4 returned a Kd of 0.053 nM.

For B5, the dissociation constant Kd was found to be 0.17 nM.

For the molecule B6, the Kd amounted to 0.5 nM.

Another test concerns the target T2, FcgRIIa H (human, UniProt P12318).
T2 chain: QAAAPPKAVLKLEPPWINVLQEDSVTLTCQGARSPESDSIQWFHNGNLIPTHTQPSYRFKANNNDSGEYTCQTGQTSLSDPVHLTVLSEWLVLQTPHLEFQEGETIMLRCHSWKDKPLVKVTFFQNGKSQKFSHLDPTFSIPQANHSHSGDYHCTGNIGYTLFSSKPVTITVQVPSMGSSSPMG
Nature of the test: SPR.
In the case of B1, the Kd came out at 25 nM.

Molecule B2 yielded a Kd of 170 nM.

B3 gave a Kd of 56 nM.

The molecule B4 displayed a Kd of 420 nM.

Turning to B5, binding was characterised by a dissociation constant (Kd) of 230 nM.

Regarding B6, the Kd is 69 nM.

Another test concerns the target T3, FcgRIIIa F (human, UniProt P08637). Nature of the test: SPR.
As to B7, the Kd came out at 4.2 nM.

B8 showed a Kd of 1.4 nM.

For the molecule B9, the Kd was found to be 22 nM.

For B10, binding was characterised by a dissociation constant (Kd) of 0.51 nM.

The molecule B11 gave a Kd of 2 nM.

As for B12, the affinity, expressed as Kd, was 3.7 nM.

B13 had a Kd of 3 nM.

On to B14, for which the Kd stood at 1.8 nM.

For a further test, the target named is T4, FcgRIIIa V (human, UniProt P08637). Nature of the test: SPR.
T4 sequence (P08637 17-208 F176V): as the sequence (P08637 17-208) above, with F160V counted along it
As for B1, the Kd was determined as 0.86 nM.

Regarding B2, the Kd worked out at 1.2 nM.

In the case of B3, the Kd was 1.2 nM.

B4 registered a Kd of 0.9 nM.

As to B5, the Kd was found to be 0.91 nM.

As to B6, the Kd turned out to be 1.2 nM.

The next test deals with T1, FcgRIa. Nature of the test: SPR. The source holds these as a separate data set.
B7 came in with a Kd of 0.066 nM.

The molecule B8 gave a Kd of 0.23 nM.

For B9, binding was characterised by a dissociation constant (Kd) of 0.31 nM.

On to B10, for which binding was put at a Kd of 0.14 nM.

The molecule B11 gave a Kd of 0.25 nM.

Turning to B12, the Kd was 0.16 nM.

Turning to B13, the affinity, expressed as Kd, was 0.39 nM.

Molecule B14 showed a Kd of 0.12 nM.

Another test has as its target T5, FcgRIIb (human, UniProt P31994).
T5 chain: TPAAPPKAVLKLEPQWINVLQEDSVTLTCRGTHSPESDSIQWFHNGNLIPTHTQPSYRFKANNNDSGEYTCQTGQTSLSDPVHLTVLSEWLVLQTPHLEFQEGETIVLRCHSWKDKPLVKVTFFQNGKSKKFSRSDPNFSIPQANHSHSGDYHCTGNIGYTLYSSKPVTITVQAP
Nature of the test: SPR.
Consider B7, for which the Kd stood at 200 nM.

Consider B8, for which the Kd turned out to be 110 nM.

B9: the Kd was 110 nM.

Consider B10, for which the Kd is 130 nM.

Molecule B11 yielded a Kd of 160 nM.

B12 yielded a Kd of 130 nM.

Molecule B13 gave a Kd of 98 nM.

B14 showed a Kd of 280 nM.

In another test the target is T4, FcgRIIIa V. Nature of the test: SPR. The source holds these as a separate data set.
Regarding B7, the Kd was found to be 1 nM.

As for B8, the affinity, expressed as Kd, was 0.19 nM.

In the case of B9, the Kd came to 16 nM.

Turning to B10, the Kd was determined as 0.036 nM.

Turning to B11, the Kd came to 0.22 nM.

Molecule B12 registered a dissociation constant (Kd) of 0.43 nM.

B13 registered a Kd of 0.57 nM.

In turn, B14 came in with an equilibrium dissociation constant (Kd) of 0.4 nM.

In a further test the target is T6, FcgRIIa R (human, UniProt P12318).
T6 chain: T2 chain with H134R
Nature of the test: SPR.
In turn, B1 displayed a Kd of 17 nM.

With B2, the Kd worked out at 480 nM.

Molecule B3 had a Kd of 360 nM.

For B4, binding was put at a Kd of 720 nM.

Turning to B5, the Kd came to 260 nM.

Consider B6, for which the affinity, expressed as Kd, was 280 nM.

In the next test the target is T2, FcgRIIa H. Nature of the test: SPR. The source holds these as a separate data set.
Turning to B7, the affinity, expressed as Kd, was 22 nM.

In the case of B8, the Kd was 65 nM.

The molecule B9 displayed a Kd of 130 nM.

B10 returned a Kd of 55 nM.

Turning to B11, the Kd was found to be 57 nM.

In turn, B12 displayed a Kd of 25 nM.

Take B13: the Kd turned out to be 35 nM.

B14 came in with a Kd of 57 nM.

The next test addresses T6, FcgRIIa R. Nature of the test: SPR. This is another data set of the same source.
Take B7: the Kd is 31 nM.

B8 returned a Kd of 26 nM.

The molecule B9 had a Kd of 11 nM.

For B10, binding was characterised by a dissociation constant (Kd) of 30 nM.

In the case of B11, the Kd was 29 nM.

Consider B12, for which the Kd is 19 nM.

As for B13, the Kd stood at 20 nM.

Turning to B14, the Kd amounted to 40 nM.

For a further test, the target named is T5, FcgRIIb. Nature of the test: SPR. The source holds these as a separate data set.
Take B1: the Kd turned out to be 190 nM.

Regarding B2, the Kd turned out to be 2600 nM.

With B3, the Kd is 3900 nM.

Molecule B4 yielded a Kd of 4500 nM.

Molecule B5 came in with a Kd of 2500 nM.

In the case of B6, the Kd came to 2800 nM.

A further test addresses T3, FcgRIIIa F. Nature of the test: SPR. The source holds these as a separate data set.
For the molecule B1, the affinity, expressed as Kd, was 3 nM.

On to B2, for which the Kd turned out to be 5.7 nM.

Regarding B3, binding was put at a Kd of 5.3 nM.

Regarding B4, the Kd was determined as 3 nM.

B5 registered a Kd of 4.4 nM.

On to B6, for which the Kd was 4.6 nM.

For orientation: Kd means the constant that tells how readily two partners part at equilibrium.
